Source: patent US20180196057A1 (VENTANA MEDICAL SYSTEMS, published 2018)
Changes are numbered by the printed parent chain. Each block holds one binder with its values, some of them ahead of it.

Assays:
[1] = target: T1, human amphiregulin (human, UniProt P15514 20-252); test: IHC on FFPE carcinoma cell lines and colorectal cancer cases (OptiView DAB)
T1 construct: Endogenous protein in FFPE tissue sections and cell lysates (IHC, Western blot); also called AREG; pro-AREG
T1 sequence: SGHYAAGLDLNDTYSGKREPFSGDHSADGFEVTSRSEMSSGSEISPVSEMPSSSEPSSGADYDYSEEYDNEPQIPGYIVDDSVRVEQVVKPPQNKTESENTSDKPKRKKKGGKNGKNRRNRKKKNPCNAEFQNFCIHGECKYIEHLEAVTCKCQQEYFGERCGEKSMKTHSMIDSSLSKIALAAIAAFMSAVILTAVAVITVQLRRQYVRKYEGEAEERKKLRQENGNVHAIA
Procedure: (§1) All assay optimization were performed on human non-small cell lung carcinoma (NSCLC) (NCI-H1975; NCI-H1650; H460; NCI-HCC827; H2228; Calu-3; H820), breast (MCF7; A431) carcinoma cell lines and colorectal cancer tissues. Stained slides for the tested conditions were evaluated by a trained pathologist and the optimal staining conditions were determined based on the staining intensity, percentage of positive cells and the level of non-specific (background) staining.
(§2) The assay performance of EREG/AREG IHC assays were evaluated on 8 colorectal cancer cases kindly provided by Dr. Paul Waring. Specimens were immunohistochemically stained for EREG expression with clone J5H1L1 and for AREG expression with J111H1L10 on a VENTANA BenchMark XT IHC/ISH instrument.

[2] = target: T2, human pro-epiregulin (human, UniProt O14944 30-169); test: recombinant antibodies screened for binding to human pro-epiregulin by IHC
T2 construct: Endogenous protein in FFPE tissue sections, xenografts and cell lysates (IHC, Western blot); also called EREG; pro-EREG
T2 sequence: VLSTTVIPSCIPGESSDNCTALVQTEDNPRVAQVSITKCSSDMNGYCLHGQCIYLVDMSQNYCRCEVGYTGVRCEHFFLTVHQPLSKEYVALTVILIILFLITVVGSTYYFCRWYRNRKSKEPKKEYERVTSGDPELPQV

[3] = target: T2, human pro-epiregulin; test: IHC on FFPE carcinoma cell lines and colorectal cancer cases (OptiView DAB)
Procedure: as §1, §2

binding result [1]: binds
B1: anti-human amphiregulin monoclonal antibody J111H1L10 (antibody, V domains shown)
VH: QSLEESRGGLIKPGGTLTLTCTVSGFSLSSYAISWVRQAPGNGLEWIGFIVGSSGSAYYASWAKSRSTITRDTNLNTVTLKMTSLTAADTATYFCAKGLYSGGNYWGPGTLVTVSS
VL: AVLTQTPSPVSAAVGGTVSISCQSSQSVDENNYLSWFQQKPGQPPKLLIYRASTLESGVPSRFSGSGSGTQFTLTVSGVQCDDAATYYCLGGYSGYSDDGFGGGTEVVVK
notes: also called clone J111H1L10; AREG J111H1L10

binding result [2]: binds
B2: anti-human pro-epiregulin monoclonal antibody J89H12L3 (antibody, V domains shown)
VH: KSVEESGGRLVTPGTPLTLTCTVSGIDLSTFAMAWVRQAPGKGLEYIGFISLSDATYYATWAKGRFTISKSSSTTVDLKIITPTAEDTATYFCARVVGDSSGYPNTFHPWGPGTLVTVSS
VL: QVLTQTPSPVSAAVGGTVTINCQASQSIHNSDFLAWYQQKPGQPPKLLIYRASKLPSGVPSRFKGSGSGTQFTLTISDLECDDAATYYCQGTYYSGGWYFTFGGGTEVVVK
notes: also called clone J89H12L3

binding result [2]: binds
B3: anti-human pro-epiregulin monoclonal antibody J89H12L8 (antibody, V domains shown)
VH: B2 VH
VL: B2 VL with S27N
notes: also called clone J89H12L8

binding result [3]: binds
B4: anti-human pro-epiregulin monoclonal antibody J5H1L1 (antibody, V domains shown)
VH: QSVEESGGRLVTPGTPLTLTCTVSGFSLSRYGMSWVRQAPGKGLEYIGSINRTAYTYYATWAKGRFTISRTSTTVDLRMTSLTTEDTATYFCARGLTYGGSDYDYDDALWGPGTLVTVSS
VL: QVLTQTPSSVSAAVGGTVTINCQASQSVYKNKNLAWYQQKPGQPPKLLIYRASTLASGVSSRFKGSGSGTQFTLTISGVQCADAATYYCQGEFSCSTFDCILFGGGTEMVVK
notes: also called clone J5H1L1; EREG J5H1L1
